Experimental findings from patent US20220332804A1 (CSL INNOVATION, published 2022) are described below.

Holding throughout (assay): SPR; KD relative to WT C2;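 further: biacore SPR at 37 °C, anti-C2 mAbs captured on an anti-human IgG chip, alanine or serine C2 surface mutants tested, KD from 1:1 fit compared with wild-type C2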
A general note: Surface plasmon resonance follows binding to a sensor surface in real time, without labels.

Assay [1] deals with T1, human C2 F437A (human, UniProt P06681 21-752).
T1 sequence: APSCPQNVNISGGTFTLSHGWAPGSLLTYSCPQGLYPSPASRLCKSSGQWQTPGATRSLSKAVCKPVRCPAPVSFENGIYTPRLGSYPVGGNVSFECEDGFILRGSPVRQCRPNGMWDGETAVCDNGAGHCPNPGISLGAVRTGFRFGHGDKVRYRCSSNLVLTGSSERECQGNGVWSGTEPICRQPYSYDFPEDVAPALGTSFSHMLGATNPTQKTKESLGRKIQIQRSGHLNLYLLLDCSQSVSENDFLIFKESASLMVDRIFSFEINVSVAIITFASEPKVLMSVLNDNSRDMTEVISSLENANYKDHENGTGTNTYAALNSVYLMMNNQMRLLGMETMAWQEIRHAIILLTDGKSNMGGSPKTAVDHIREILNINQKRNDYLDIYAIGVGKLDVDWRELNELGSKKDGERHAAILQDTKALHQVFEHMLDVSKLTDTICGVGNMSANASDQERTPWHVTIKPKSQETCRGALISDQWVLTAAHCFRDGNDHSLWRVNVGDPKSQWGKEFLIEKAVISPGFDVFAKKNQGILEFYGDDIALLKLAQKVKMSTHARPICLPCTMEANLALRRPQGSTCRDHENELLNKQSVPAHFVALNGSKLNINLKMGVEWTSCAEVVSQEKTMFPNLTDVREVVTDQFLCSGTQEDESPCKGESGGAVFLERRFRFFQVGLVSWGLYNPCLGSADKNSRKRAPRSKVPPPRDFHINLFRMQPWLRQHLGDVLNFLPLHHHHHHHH

In assay [2] the target is T2, human C2 E450A (human, UniProt P06681 21-752).
T2 sequence: T1 sequence with A417F, E430A

Assay [3] addresses T3, human C2 A470S (human, UniProt P06681 21-752).
T3 sequence: T1 sequence with A417F, A450S

Assay [4] concerns the target T4, human C2 H446A (human, UniProt P06681 21-752).
T4 sequence: T1 sequence with A417F, H426A

Positions count from the first letter of the chain named.

B1: RF16-214 (antibody, V domains shown)
VH: EVQLLESGGGLVQPGGSLRLSCAASGFTFSWYQMMWVRQAPGKGLEWVSRIYPSGGGTAYADSVKGRFTISRDNSKNTLYLQMNSLRAEDTAVYYCARDAGYGDNWGQGTLVTVSS
VL: QSALTQPPSVSVSPGQTASITCSGDKLGEKYASWYQQKAGQSPVMVIYQDRKRPSGIPERFSGSNSGNTATLTISGTQAMDEADYYCQAWDTRAVVFGGGTKLTVLG
Turning to B1, the Fold diff in assay [1] amounted to 12 fold; in assay [2], 20 fold; in assay [3], 1 fold; in assay [4], 5 fold.
